Experimental findings from publication PMC9675693, “Production and characterisation of modularly deuterated UBE2D1–Ub conjugate by small angle neutron and X-ray scattering” (European Biophysics Journal, 2022) are described below.

The data set concerns the molecule itself. As to the kind of experiment: SDS-PAGE; purified hE2 on an SDS-PAGE gel; additional band of ~25 kDa.

B1: human Ubiquitin-conjugating enzyme UBE2D1 with point mutations S22R, C85K and D87S, hydrogenated (enzyme)
chain: not shown
notes: Ubiquitin-conjugating enzyme UBE2D1, human, with S22R, C85K and D87S; In the SAS experiment (a1) K85 of this chain is joined by an isopeptide bond to G76 of dUb; also called hE2; not shown: His6, N-terminal, cleaved
Take B1: the binding result is listed as “binds”.
